Data as given in patent US8519051B2, “Block copolymer for drug conjugates and pharmaceutical composition” (priority 2006, dated 2013).
Where a name gives a salt, the structure may show the parent alone. Read-outs that look alike come from different tables or passages of the source.

Columns and labels:
[1] = MTD previously determined using normal healthy mice; type: in vivo
Experimental: (§1) Male nude mice (Balb nu/nu, 5 weeks old) were purchased from Charles River Laboratories Japan, Inc., and human prostate cancer PC-3 cells were purchased from the Human Health Sciences Foundation Resources Bank. PC-3 cells that had been subcultured in a CO2 incubator were suspended in physiological saline for injection (Otsuka Pharmaceutical Co., Ltd.), and were subcutaneously injected into the back of the nude mice to a cell count of 2×10^6/50 μl per animal. Then, after keeping the nude mice for about 2 weeks, the administration of the drug was started when the mean of tumor volume reached about 50 mm^3.

[2] = system: Human prostate cancer PC-3 cells; assay: drug efficacy study: tumor volume in PC-3-xenografted nude mice; type: in vivo, male nude mice (Balb nu/nu); details: tail vein, every 4 days for a total of 3 times
Excerpt: Human prostate cancer PC-3 cells subcutaneous transplanted to male nude mice were used as the model for evaluating drug efficacy.

in vivo = details: rat, 1 mg/kg
Experimental: Two compounds, i.e., the conjugate (13 DOX) obtained in Example 5a and MeO-PEG-pAsp (Hyd-DOX, Bn) (8 DOX) (Example 5b) prepared in method pursuant to Example 5a and having a different amount bound of DOX were used. An amount between 10-20 mg of each polymer was weighed accurately into a sample vial, to which 1 ml of dichloromethane was added to completely dissolve the polymer. Then, under the stream of nitrogen, the solvent was evaporated to prepare the polymer in the film form. Under reduced pressure, it was further dried at room temperature for 1 hour, and then 20 mM sodium phosphate buffer (pH 7.4)/5%(w/v) glucose was added to a polymer concentration of 10 mg/ml to hydrate the polymer film at 4° C. After stirring overnight at 4° C., it was subjected to ultrasonic treatment in ice chilled water for 10 minutes using the Biodisruptor (Nihonseiki Kaisha Ltd., High Power Unit). Subsequently, it was filtered with a 0.22 μm filter (Millipore, Millex™ GP PES) to prepare a micelle of the filtrate, which was used in the subsequent experiment.
To male Wistar rats (Charles River Laboratories Japan, Inc., 6-7 weeks old) under ether anesthesia, the above two micelles were administered into the tail vein under the following condition (n=3). Heparin-coated syringes were used to collect blood, and after centrifuging the blood drawn at 4° C., plasma was collected and stored at −30° C. until use.
Dose: 1 mg/kg in terms of the amount of DOX
Blood drawing timing: 5 minutes, 1, 3, 6, 9, 24, 48 hours after administration
Amount of blood drawn: 0.2-0.25 ml each time (from the jugular vein)
To 50 μl of rat plasma collected, 100 μl of acetonitrile and 50 μl of 0.4 N HCl were added in this order to make a total of 200 μl. After stirring, it was allowed to stand at room temperature for 1 hour. Subsequently, it was centrifuged (Funakoshi, Chibitan, 10,000 rpm, 10 minutes) at room temperature to collect 100 μl of the supernatant, to which 30 μl of 0.2 N NaOH, 20 μl of 1% Triton X-100, and 50 μl of 2 μg/ml of daunorubicin hydrochloride (Wako) (internal standard)/20 mM ammonium formate buffer (pH 3.0) was added in this order to make a total of 200 μl. The treatment sample liquid was filled into a HPLC sample vial, and subjected to HPLC analysis to determine the DOX concentration in the plasma.
To 50 μl of rat plasma collected, 100 μl of acetonitrile was added, centrifuged (Funakoshi, Chibitan, 10,000 rpm, 10 minutes) at room temperature to collect 50 μl of the supernatant, to which 100 μl of 2 μg/ml of daunorubicin hydrochloride (Wako) (internal standard)/20 mM sodium phosphate buffer (pH 7.4) was added. The treatment sample liquid was filled into a HPLC sample vial, and subjected to HPLC analysis to determine the DOX concentration in the plasma.
Using the values of the above (a) and (b), the concentration of polymer-conjugated DOX was calculated based on the following equation: (Polymer-conjugated DOX concentration)=(total DOX concentration)−(free DOX concentration) 4) Result of Determination of Concentration Change with Time in the Plasma
An amount between 10-20 mg each of 4 different polymers (8, 15, 20, and 39 DOX) was weighed accurately into a sample vial, to which 1 ml of dichloromethane was added to completely dissolve the polymer. Then, under the stream of nitrogen, the solvent was evaporated to prepare the polymer in the film form. Under reduced pressure, it was further dried at room temperature for 1 hour, and then 20 mM sodium phosphate buffer (pH 7.4)/5%(w/v) glucose was added to a polymer concentration of 10 mg/ml to hydrate the polymer film at 4° C. After stirring overnight at 4° C., it was subjected to ultrasonic treatment in ice chilled water for 10 minutes using the Biodisruptor (Nihonseiki Kaisha Ltd., High Power Unit). Subsequently, it was filtered with a 0.22 μm filter (Millipore, Millex™ GP PES) to prepare polymeric micelles of the filtrate, which were used in the subsequent experiment.

[3] = side effects: changes in body weight of PC-3-xenografted nude mice; details: tail vein, every 4 days for a total of 3 times
Experimental: as §1

[4] = study on pH-dependency of drug release from polymeric micelles; type: physicochemical; details: 37° C.
Experimental: To 950 μl of 20 mM ammonium formate buffer (pH 3), sodium acetate buffer (pH 5), or sodium phosphate buffer (pH 7.4) previously heated to 37° C., 50 μl of the polymeric micelles prepared in the above method were added to initiate a drug release experiment. At predetermined timing, 50 μl of the sample was collected, and instead the liquid amount was replenished with the same buffer, The free DOX concentration in the collected sample was determined by HPLC according to the above-mentioned method.

Compound | AUC (in vivo; iv) [ng·h/mL] | retention in the plasma (in words) (in vivo; iv) | also measured
COc1cccc2c1C(=O)c1c(O)c3c(c(O)c1C2=O)C[C@@](O)(C(=O)CO)C[C@@H]3O[C@H]1C[C@H](N)[C@H](O)[C@H](C)O1 [DOX solution (Comp. Ex. 12), doxorubicin hydrochloride] | – | – | MTD ([1]; mouse, in vivo, read-out: MTD): 5 mg/kg; T/C at the maximum (tumor volume of drug group to control group) ([2]; 5 mg/kg (MTD)): 0.4
COc1cccc2c1C(=O)c1c(O)c3c(c(O)c1C2=O)C[C@@](O)(C(=O)CO)C[C@@H]3O[C@H]1C[C@H](N)[C@@H](O)[C@H](C)O1 [epirubicin hydrochloride] | – | – | AUC (in vivo; male, Wistar): 40 ng·h/mL
MeO-PEG-pAsp (Hyd-DOX) [8DOX (Comp. Ex. 5)] | 19100 | relatively persistent retention in the plasma | –
MeO-PEG-pAsp (Hyd-DOX) [15DOX (Comp. Ex. 6)] | 7600 | relatively persistent retention in the plasma | –
MeO-PEG-pAsp (Hyd-DOX) [20DOX (Comp. Ex. 6)] | 3100 | rapidly disappear | –
MeO-PEG-pAsp (Hyd-DOX) [39DOX (Comp. Ex. 6)] | 1200 | rapidly disappear | –
MeO-PEG-pAsp (Hyd-DOX) [Comparative Example 6] | – | – | MTD [1]: 15 mg/kg; decrease in body weight (maximum) ([3]; 15 mg/kg (MTD)): 13%; T/C at the maximum (tumor volume of drug group to control group) ([2]; 15 mg/kg (MTD)): 0.42
MeO-PEG-pAsp (Hyd-DOX, Bn) [8DOX (Example 5b)] | 149000 | persistent plasma concentration | concentration of free DOX relative to the total DOX concentration in plasma (in vivo; iv): about 1/100
MeO-PEG-pAsp (Hyd-DOX, Bn) [13DOX (Example 5a)] | 238000 | – | decrease in body weight (maximum) ([3]; 11 mg/kg (MTD×⅔)): 15%; T/C at the maximum (tumor volume of drug group to control group) ([2]; 11 mg/kg (MTD×⅔)): 0.32; release of DOX from the micelles ([4]; pH 3, 20 mM ammonium formate buffer): rapidly released; release of DOX from the micelles ([4]; pH 5 to 7.4 (sodium acetate / sodium phosphate buffer)): the release rate decreased
MeO-PEG-pAsp (Hyd-DOX, C4-Phenyl) [6DOX (Example 7)] | 156000 | – | –
MeO-PEG-pAsp (Hyd-DOX, C8) [12DOX (Example 3)] | 90700 | – | –
MeO-PEG-pAsp (Hyd-DOX, NH4) [12DOX (Comp. Ex. 7)] | 69500 | – | AUC relative to that of Example 5 (in vivo; iv): about ¼; increase in AUC compared to the DOX solution (in vivo; iv): about 500 fold
MeO-PEG-pAsp (amide-DOX) [13DOX (Amide) (Comp. Ex. 9)] | 57900 | – | AUC relative to that of Example 5 (in vivo; iv): about ¼; increase in AUC compared to the DOX solution (in vivo; iv): about 500 fold
